The source of these data is patent publication US20160347862A1 (Janssen / Centocor, published 2016).

For assay [1], the target named is T1, human thrombin (human, UniProt P00734 314-363; P00734 364-622). Put plainly: cell-based or functional assay.
In assay [2] the target is T1, human thrombin. The assay is described as follows: cell-based or functional assay. This is another data set of the same source.
The target in assay [3] is prothrombin (Homo sapiens (Human), UniProt P00734 44-622). Put plainly: pull-down with IgA-binding lectin agarose; supernatant on non-reducing SDS-PAGE.
The target in assay [4] is T1, human thrombin. Put plainly: estimated from the rate of S2238 hydrolysis by thrombin.
For assay [5], the target named is T1, human thrombin. Put plainly: ELISA binding to thrombin, four-parameter fit (log(agonist) vs. response -- Variable slope).
For assay [6], the target named is T1, human thrombin. Put plainly: Biacore, antibody as ligand, ambient condition; Control (ambient condition), not 4° C. storage or light exposure.
Assay [7] deals with T1, human thrombin. The assay is described as follows: Biacore, antibody as ligand, after storage for one month at 4° C.
The target in assay [8] is T1, human thrombin. The assay is described as follows: Biacore, antibody as ligand, after exposure to light.

B1: wild-type anti-exosite 1 IgA antibody (antibody, V domains shown)
VH: QVQLIQSGSAVKKPGASVRVSCKVSGYTLTEAAIHWVRQAPGKGLEWMGGLDPQDGETVYAQQFKGRVTMTEDRSTDTAYMEVNNLRSEDTATYYCTTGDFSEFEPFSMDYFHFWGQGTVVTVAS
VL: EIVLTQSPATLSLSPGERATLSCRASQNVSSFLAWYQHKPGQAPRLLIYDASSRATDIPIRFSGSGSGTDFTLTISGLEPEDFAVYYCQQRRSWPPLTFGGGTKVEIKR
notes: also called anti-thrombin IgA; anti-IIa IgA
As for B1, the “EC50 (read off the curve), Vi/V0 of S2238 cleavage by thrombin” value in assay [1] is roughly 10 nM. In addition, in assay [2], the “thrombin hydrolysis of FVIII (feedback activation of thrombin via Xase complex)” value was 7 fold and the “thrombin hydrolysis of platelet receptor PAR-1 peptide (activation of platelets)” value is 15 fold. For the same molecule, the binding result in assay [3] is “no binding”. Also, the Kd in assay [4] is roughly 12 nM.

B2: synthetic anti-exosite 1 IgG S30A variant antibody (antibody, V domains shown)
VH: QVQLIQSGSAVKKPGASVRVSCKVSGYTLTEAAIHWVRQAPGKGLEWMGGLDPQDGETVYAQQFKGRVTMTEDRSTDTAYMEVNNLRSEDTATYYCTTGDFSEFEPFSMDYFHFWGQGTVVTVAS
VL: EIVLTQSPATLSLSPGERATLSCRASQNVASFLAWYQHKPGQAPRLLIYDASSRATDIPIRFSGSGSGTDFTLTISGLEPEDFAVYYCQQRRSWPPLTFGGGTKVEIKR
notes: also called ichorcumab S30A; ichorcumab
In the case of B2, the response in assay [5] was half-maximal at 0.0126 µg/mL (EC50). The Kd in assay [6] was 1.77 nM; in assay [7] it was 1.74 nM; in assay [8], 1.8 nM.
